Test results from patent US11833164B2, “Methods of treating Fabry disease in patients having a mutation in the GLA gene” (Amicus Therapeutics, Inc., priority 2019, dated 2023).

System: mutant form of α-Gal A expressed in HEK-293 cells
Assay: HEK assay (GLP HEK / Migalastat Amenability Assay): α-Gal A activity in lysates of transiently transfected HEK-293 cells incubated with or without 10 μM migalastat
Type: cell-based, human
Settings: for Absolute increase (% WT): 10 μM migalastat versus baseline; for Relative increase: 10 μM migalastat α-Gal A activity relative to baseline; for 10 μM migalastat α-Gal A activity (% WT): 5 days; for 10 μM migalastat α-Gal A activity (% WT) / Baseline α-Gal A activity (% WT): percentage of baseline wild-type α-Gal A activity; for 10 μM migalastat α-Gal A activity (% WT) / Baseline α-Gal A activity (% WT) / Baseline α-Gal A activity / 10 μM migalastat α-Gal A activity: mean ± SEM; for Baseline α-Gal A activity (% WT): absence of migalastat; for Baseline α-Gal A activity / 10 μM migalastat α-Gal A activity: lysates of HEK-293 cells transfected with the mutant form; for Baseline α-Gal A activity: incubated 5 days in the absence of migalastat; for 10 μM migalastat α-Gal A activity: incubated 5 days with 10 μM migalastat
Protocol: Such mutations or variants are also referred to herein as “HEK assay amenable” mutations or variants.
The α-Gal A activity is expressed as the nmoles of free 4-MU released per milligram of protein per hour (nmol/mg/hr).
In Table 7, values for the mean±standard error of the mean (SEM) were calculated. nmol/mg/hr indicates “nmoles of free 4-MU released per mg of protein per hour”. WT indicates “wild-type”. NC indicates “not calculable”. N/A indicates “not applicable”.

| Molecule | Absolute increase (% WT) | Relative increase | 10 μM migalastat α-Gal A activity (% WT) | Baseline α-Gal A activity (% WT) | Baseline α-Gal A activity | 10 μM migalastat α-Gal A activity |
| --- | --- | --- | --- | --- | --- | --- |
| S126C (protein) MQLRNPELHLGCALALRFLALVSWDIPGARALDNGLARTPTMGWLHWERFMCNLDCQEEPDSCISEKLFMEMAELMVSEGWKDAGYEYLCIDDCWMAPQRDSEGRLQADPQRFPHGIRQLANYVHCKGLKLGIYADVGNKTCAGFPGSFGYYDIDAQTFADWGVDLLKFDGCYCDSLENLADGYKHMSLALNRTGRSIVYSCEWPLYMWPFQKPNYTEIRQYCNHWRNFADIDDSWKSIKSILDWTSFNQERIVDVAGPGGWNDPDMLVIGNFGLSWNQQVTQMALWAIMAAPLFMSNDLRHISPQAKALLQDKDVIAINQDPLGKQGYQLRQGDNFEVWERPLSGLAWAVAMINRQEIGGPRSYTIAVASLGKGVACNPACFITQLLPVKRKLGFYEWTSRLRSHINPTGTVLLQLENTMQMSLKDLL | 7.5 % WT | 1.4 | 24.5 ± 1.5 % WT | 16.9 ± 1.1 % WT | 7046 ± 488 nmol/mg/h | 10050 ± 554 nmol/mg/h |
| K130N (protein) MQLRNPELHLGCALALRFLALVSWDIPGARALDNGLARTPTMGWLHWERFMCNLDCQEEPDSCISEKLFMEMAELMVSEGWKDAGYEYLCIDDCWMAPQRDSEGRLQADPQRFPHGIRQLANYVHSKGLNLGIYADVGNKTCAGFPGSFGYYDIDAQTFADWGVDLLKFDGCYCDSLENLADGYKHMSLALNRTGRSIVYSCEWPLYMWPFQKPNYTEIRQYCNHWRNFADIDDSWKSIKSILDWTSFNQERIVDVAGPGGWNDPDMLVIGNFGLSWNQQVTQMALWAIMAAPLFMSNDLRHISPQAKALLQDKDVIAINQDPLGKQGYQLRQGDNFEVWERPLSGLAWAVAMINRQEIGGPRSYTIAVASLGKGVACNPACFITQLLPVKRKLGFYEWTSRLRSHINPTGTVLLQLENTMQMSLKDLL | 10.1 % WT | 1.5 | 31.5 ± 3 % WT | 21.5 ± 1.9 % WT | 8597 ± 678 nmol/mg/h | 12595 ± 989 nmol/mg/h |
| L129V (protein) MQLRNPELHLGCALALRFLALVSWDIPGARALDNGLARTPTMGWLHWERFMCNLDCQEEPDSCISEKLFMEMAELMVSEGWKDAGYEYLCIDDCWMAPQRDSEGRLQADPQRFPHGIRQLANYVHSKGVKLGIYADVGNKTCAGFPGSFGYYDIDAQTFADWGVDLLKFDGCYCDSLENLADGYKHMSLALNRTGRSIVYSCEWPLYMWPFQKPNYTEIRQYCNHWRNFADIDDSWKSIKSILDWTSFNQERIVDVAGPGGWNDPDMLVIGNFGLSWNQQVTQMALWAIMAAPLFMSNDLRHISPQAKALLQDKDVIAINQDPLGKQGYQLRQGDNFEVWERPLSGLAWAVAMINRQEIGGPRSYTIAVASLGKGVACNPACFITQLLPVKRKLGFYEWTSRLRSHINPTGTVLLQLENTMQMSLKDLL | 16.4 % WT | 1.5 | 48.1 ± 4.5 % WT | 31.8 ± 3.3 % WT | 12614 ± 1265 nmol/mg/h | 19488 ± 1603 nmol/mg/h |
| K130M (protein) MQLRNPELHLGCALALRFLALVSWDIPGARALDNGLARTPTMGWLHWERFMCNLDCQEEPDSCISEKLFMEMAELMVSEGWKDAGYEYLCIDDCWMAPQRDSEGRLQADPQRFPHGIRQLANYVHSKGLMLGIYADVGNKTCAGFPGSFGYYDIDAQTFADWGVDLLKFDGCYCDSLENLADGYKHMSLALNRTGRSIVYSCEWPLYMWPFQKPNYTEIRQYCNHWRNFADIDDSWKSIKSILDWTSFNQERIVDVAGPGGWNDPDMLVIGNFGLSWNQQVTQMALWAIMAAPLFMSNDLRHISPQAKALLQDKDVIAINQDPLGKQGYQLRQGDNFEVWERPLSGLAWAVAMINRQEIGGPRSYTIAVASLGKGVACNPACFITQLLPVKRKLGFYEWTSRLRSHINPTGTVLLQLENTMQMSLKDLL | 10.9 % WT | 1.3 | 41.4 ± 2.6 % WT | 30.5 ± 2.1 % WT | 12335 ± 890 nmol/mg/h | 16496 ± 921 nmol/mg/h |
| K130Q (protein) MQLRNPELHLGCALALRFLALVSWDIPGARALDNGLARTPTMGWLHWERFMCNLDCQEEPDSCISEKLFMEMAELMVSEGWKDAGYEYLCIDDCWMAPQRDSEGRLQADPQRFPHGIRQLANYVHSKGLQLGIYADVGNKTCAGFPGSFGYYDIDAQTFADWGVDLLKFDGCYCDSLENLADGYKHMSLALNRTGRSIVYSCEWPLYMWPFQKPNYTEIRQYCNHWRNFADIDDSWKSIKSILDWTSFNQERIVDVAGPGGWNDPDMLVIGNFGLSWNQQVTQMALWAIMAAPLFMSNDLRHISPQAKALLQDKDVIAINQDPLGKQGYQLRQGDNFEVWERPLSGLAWAVAMINRQEIGGPRSYTIAVASLGKGVACNPACFITQLLPVKRKLGFYEWTSRLRSHINPTGTVLLQLENTMQMSLKDLL | 12.0 % WT | 1.4 | 47.8 ± 3.1 % WT | 35.8 ± 2.6 % WT | 11880 ± 450 nmol/mg/h | 16001 ± 701 nmol/mg/h |
| S126I (protein) MQLRNPELHLGCALALRFLALVSWDIPGARALDNGLARTPTMGWLHWERFMCNLDCQEEPDSCISEKLFMEMAELMVSEGWKDAGYEYLCIDDCWMAPQRDSEGRLQADPQRFPHGIRQLANYVHIKGLKLGIYADVGNKTCAGFPGSFGYYDIDAQTFADWGVDLLKFDGCYCDSLENLADGYKHMSLALNRTGRSIVYSCEWPLYMWPFQKPNYTEIRQYCNHWRNFADIDDSWKSIKSILDWTSFNQERIVDVAGPGGWNDPDMLVIGNFGLSWNQQVTQMALWAIMAAPLFMSNDLRHISPQAKALLQDKDVIAINQDPLGKQGYQLRQGDNFEVWERPLSGLAWAVAMINRQEIGGPRSYTIAVASLGKGVACNPACFITQLLPVKRKLGFYEWTSRLRSHINPTGTVLLQLENTMQMSLKDLL | 16.0 % WT | 1.2 | 85.9 ± 5.3 % WT | 69.8 ± 5.1 % WT | 28685 ± 1923 nmol/mg/h | 35340 ± 2027 nmol/mg/h |
| L131V (protein) MQLRNPELHLGCALALRFLALVSWDIPGARALDNGLARTPTMGWLHWERFMCNLDCQEEPDSCISEKLFMEMAELMVSEGWKDAGYEYLCIDDCWMAPQRDSEGRLQADPQRFPHGIRQLANYVHSKGLKVGIYADVGNKTCAGFPGSFGYYDIDAQTFADWGVDLLKFDGCYCDSLENLADGYKHMSLALNRTGRSIVYSCEWPLYMWPFQKPNYTEIRQYCNHWRNFADIDDSWKSIKSILDWTSFNQERIVDVAGPGGWNDPDMLVIGNFGLSWNQQVTQMALWAIMAAPLFMSNDLRHISPQAKALLQDKDVIAINQDPLGKQGYQLRQGDNFEVWERPLSGLAWAVAMINRQEIGGPRSYTIAVASLGKGVACNPACFITQLLPVKRKLGFYEWTSRLRSHINPTGTVLLQLENTMQMSLKDLL | 12.7 % WT | 1.3 | 53.2 ± 5.3 % WT | 40.5 ± 2.8 % WT | 18644 ± 1664 nmol/mg/h | 24913 ± 3151 nmol/mg/h |
| G128A (protein) MQLRNPELHLGCALALRFLALVSWDIPGARALDNGLARTPTMGWLHWERFMCNLDCQEEPDSCISEKLFMEMAELMVSEGWKDAGYEYLCIDDCWMAPQRDSEGRLQADPQRFPHGIRQLANYVHSKALKLGIYADVGNKTCAGFPGSFGYYDIDAQTFADWGVDLLKFDGCYCDSLENLADGYKHMSLALNRTGRSIVYSCEWPLYMWPFQKPNYTEIRQYCNHWRNFADIDDSWKSIKSILDWTSFNQERIVDVAGPGGWNDPDMLVIGNFGLSWNQQVTQMALWAIMAAPLFMSNDLRHISPQAKALLQDKDVIAINQDPLGKQGYQLRQGDNFEVWERPLSGLAWAVAMINRQEIGGPRSYTIAVASLGKGVACNPACFITQLLPVKRKLGFYEWTSRLRSHINPTGTVLLQLENTMQMSLKDLL | 5.1 % WT | 1.2 | 25.9 ± 2.3 % WT | 20.8 ± 2 % WT | 8484 ± 872 nmol/mg/h | 10204 ± 703 nmol/mg/h |
| K127E (protein) MQLRNPELHLGCALALRFLALVSWDIPGARALDNGLARTPTMGWLHWERFMCNLDCQEEPDSCISEKLFMEMAELMVSEGWKDAGYEYLCIDDCWMAPQRDSEGRLQADPQRFPHGIRQLANYVHSEGLKLGIYADVGNKTCAGFPGSFGYYDIDAQTFADWGVDLLKFDGCYCDSLENLADGYKHMSLALNRTGRSIVYSCEWPLYMWPFQKPNYTEIRQYCNHWRNFADIDDSWKSIKSILDWTSFNQERIVDVAGPGGWNDPDMLVIGNFGLSWNQQVTQMALWAIMAAPLFMSNDLRHISPQAKALLQDKDVIAINQDPLGKQGYQLRQGDNFEVWERPLSGLAWAVAMINRQEIGGPRSYTIAVASLGKGVACNPACFITQLLPVKRKLGFYEWTSRLRSHINPTGTVLLQLENTMQMSLKDLL | 6.4 % WT | 1.2 | 32.2 ± 2.3 % WT | 25.8 ± 1.1 % WT | 8968 ± 519 nmol/mg/h | 11003 ± 768 nmol/mg/h |
